Results as given in PMC12416549 (2024).
Numbering of substitutions follows the chain as printed. Names may count otherwise.

T1: TNFR1 (Homo sapiens, UniProt P19438)
T1 chain: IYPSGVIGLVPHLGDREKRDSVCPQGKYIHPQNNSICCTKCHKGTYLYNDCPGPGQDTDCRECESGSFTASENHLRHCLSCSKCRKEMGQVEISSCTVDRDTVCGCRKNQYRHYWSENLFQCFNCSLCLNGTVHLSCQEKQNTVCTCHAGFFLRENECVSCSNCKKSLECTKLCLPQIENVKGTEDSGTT

B1: A47L (designed binder)
chain: SMEEEVEKAAKEYEKKKKEAIEKHLEKLKAKDKEAAERFLKELEEALKEYAKDEAKTMSEEEAKRRAKKYKEKVLLSELSEEEQKEIKEAEEKLVRTILKYVEEAAK
B2: M58T (designed binder)
chain: B1 chain with L47A, M58T
B3: A36D (designed binder)
chain: B1 chain with A36D, L47A
B4: Y70I (designed binder)
chain: B1 chain with L47A, Y70I
B5: R65N (designed binder)
chain: B1 chain with L47A, R65N
B6: L94G (designed binder)
chain: B1 chain with L47A, L94G
B7: Y13Q (designed binder)
chain: B1 chain with Y13Q, L47A
B8: L25P (designed binder)
chain: B1 chain with L25P, L47A
B9: K68P (designed binder)
chain: B1 chain with L47A, K68P
B10: L75I (designed binder)
chain: B1 chain with L47A, L75I
B11: K17G (designed binder)
chain: B1 chain with K17G, L47A
B12: A30R (designed binder)
chain: B1 chain with A30R, L47A
B13: K8L (designed binder)
chain: B1 chain with K8L, L47A
B14: A10M (designed binder)
chain: B1 chain with A10M, L47A
B15: K8C (designed binder)
chain: B1 chain with K8C, L47A
B16: E14Q (designed binder)
chain: B1 chain with E14Q, L47A
B17: K73L (designed binder)
chain: B1 chain with L47A, K73L
B18: H24S (designed binder)
chain: B1 chain with H24S, L47A
B19: A20L (designed binder)
chain: B1 chain with A20L, L47A
B20: A10R (designed binder)
chain: B1 chain with A10R, L47A
B21: E44K (designed binder)
chain: B1 chain with E44K, L47A
B22: E3Y (designed binder)
chain: B1 chain with E3Y, L47A
B23: E82V (designed binder)
chain: B1 chain with L47A, E82V
B24: K69N (designed binder)
chain: B1 chain with L47A, K69N
B25: Y50L (designed binder)
chain: B1 chain with L47A, Y50L
B26: Y70S (designed binder)
chain: B1 chain with L47A, Y70S
B27: E72H (designed binder)
chain: B1 chain with L47A, E72H
B28: E81H (designed binder)
chain: B1 chain with L47A, E81H
B29: K93Q (designed binder)
chain: B1 chain with L47A, K93Q
B30: T97V (designed binder)
chain: B1 chain with L47A, T97V
B31: A55P (designed binder)
chain: B1 chain with L47A, A55P
B32: L76R (designed binder)
chain: B1 chain with L47A, L76R
B33: E37A (designed binder)
chain: B1 chain with E37A, L47A
B34: I87S (designed binder)
chain: B1 chain with L47A, I87S
B35: Y13A (designed binder)
chain: B1 chain with Y13A, L47A
B36: K29G (designed binder)
chain: B1 chain with K29G, L47A
B37: S1F (designed binder)
chain: B1 chain with S1F, L47A
B38: K85N (designed binder)
chain: B1 chain with L47A, K85N
B39: L76N (designed binder)
chain: B1 chain with L47A, L76N
B40: E83G (designed binder)
chain: B1 chain with L47A, E83G
B41: E82K (designed binder)
chain: B1 chain with L47A, E82K
B42: D53I (designed binder)
chain: B1 chain with L47A, D53I
B43: A35P (designed binder)
chain: B1 chain with A35P, L47A
B44: L28M (designed binder)
chain: B1 chain with L28M, L47A
B45: V74D (designed binder)
chain: B1 chain with L47A, V74D
B46: E92I (designed binder)
chain: B1 chain with L47A, E92I
B47: K8D (designed binder)
chain: B1 chain with K8D, L47A
B48: A106K (designed binder)
chain: B1 chain with L47A, A106K
B49: E78K (designed binder)
chain: B1 chain with L47A, E78K
B50: K27L (designed binder)
chain: B1 chain with K27L, L47A
B51: K107P (designed binder)
chain: B1 chain with L47A, K107P
B52: A9R (designed binder)
chain: B1 chain with A9R, L47A
B53: T57V (designed binder)
chain: B1 chain with L47A, T57V
B54: T57M (designed binder)
chain: B1 chain with L47A, T57M
B55: A20D (designed binder)
chain: B1 chain with A20D, L47A
B56: K71D (designed binder)
chain: B1 chain with L47A, K71D
B57: E14H (designed binder)
chain: B1 chain with E14H, L47A
B58: A106G (designed binder)
chain: B1 chain with L47A, A106G
B59: K8E (designed binder)
chain: B1 chain with K8E, L47A

Molecular target: T1, TNFR1
Assay: yeast display SC50

apparent Kd (screen) | Binder
13.8 nM | B1
4.83 nM | B2
0.446 nM | B3
20.2 nM | B4
1.4 nM | B5
2.25 nM | B6
1.69 nM | B7
8.56 nM | B8
7.07 nM | B9
0.79 nM | B10
2.73 nM | B11
0.79 nM | B12
0.718 nM | B13
2.73 nM | B14
0.956 nM | B15
4.83 nM | B16
7.07 nM | B17
0.869 nM | B18
0.405 nM | B19
0.446 nM | B20

apparent Kd (screen) | Binder
0.956 nM | B21
5.84 nM | B22
0.539 nM | B23
2.48 nM | B24
0.79 nM | B25
4.83 nM | B26
2.73 nM | B27
0.593 nM | B28
0.49 nM | B29
2.73 nM | B30
12.5 nM | B31
7.07 nM | B32
0.49 nM | B33
12.5 nM | B34
0.49 nM | B35
0.446 nM | B36
4.39 nM | B37
0.446 nM | B38
2.73 nM | B39
1.69 nM | B40

apparent Kd (screen) | Binder
0.446 nM | B41
12.5 nM | B42
1.4 nM | B43
0.956 nM | B44
0.405 nM | B45
12.5 nM | B46
1.4 nM | B47
0.593 nM | B48
4.83 nM | B49
1.16 nM | B50
0.956 nM | B51
0.335 nM | B52
0.49 nM | B53
0.446 nM | B54
1.16 nM | B55
16.7 nM | B56
2.73 nM | B57
0.79 nM | B58
1.54 nM | B59
